The test addresses human ER membrane protein complex (EMC) with EMC2-3xFlag and EMC5-Twin-Strep (human (endogenous in Expi293F) | human) (UniProt Q8N766). Briefly: cryo-EM structure; VDAC1-bound class of the purified human EMC sample in digitonin (complex co-purified from cells), single-particle cryo-EM, 3.32 Å.
Sequence of UniProt Q8N766 (Q8N766 whole entry, looked up, one chain of several): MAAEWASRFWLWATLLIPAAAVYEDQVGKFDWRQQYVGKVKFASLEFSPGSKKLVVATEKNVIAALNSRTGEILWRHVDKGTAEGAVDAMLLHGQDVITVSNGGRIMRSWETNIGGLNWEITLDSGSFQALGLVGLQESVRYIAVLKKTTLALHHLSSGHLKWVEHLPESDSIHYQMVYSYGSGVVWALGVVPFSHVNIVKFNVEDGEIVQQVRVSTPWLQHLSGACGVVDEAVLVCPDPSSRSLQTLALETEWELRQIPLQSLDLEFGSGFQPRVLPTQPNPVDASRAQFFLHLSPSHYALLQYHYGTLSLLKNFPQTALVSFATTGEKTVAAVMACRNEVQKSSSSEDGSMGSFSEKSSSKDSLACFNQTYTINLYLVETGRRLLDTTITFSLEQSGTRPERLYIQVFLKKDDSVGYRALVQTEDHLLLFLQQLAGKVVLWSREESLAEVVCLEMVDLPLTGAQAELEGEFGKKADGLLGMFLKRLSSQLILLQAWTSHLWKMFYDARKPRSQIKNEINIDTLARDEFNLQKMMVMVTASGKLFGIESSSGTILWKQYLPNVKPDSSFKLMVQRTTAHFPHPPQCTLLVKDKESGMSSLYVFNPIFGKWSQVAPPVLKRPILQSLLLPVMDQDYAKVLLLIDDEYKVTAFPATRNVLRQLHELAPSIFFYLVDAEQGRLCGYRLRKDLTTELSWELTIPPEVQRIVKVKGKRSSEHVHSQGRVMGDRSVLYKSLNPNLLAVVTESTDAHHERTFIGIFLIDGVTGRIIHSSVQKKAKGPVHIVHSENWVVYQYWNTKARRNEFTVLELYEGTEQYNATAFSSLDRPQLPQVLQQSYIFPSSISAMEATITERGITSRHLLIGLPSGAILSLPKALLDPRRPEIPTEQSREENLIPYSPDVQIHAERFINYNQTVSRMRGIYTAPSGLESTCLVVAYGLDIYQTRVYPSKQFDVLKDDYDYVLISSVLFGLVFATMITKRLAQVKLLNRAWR

In turn, “voltage-dependent anion channel 1 (VDAC1), endogenous (from UniProt P21796 1-283) (natural protein)” returned a stoichiometry N of 1.

(Values after paper PMC11006472.)
